Results from patent US11266715B2, “C3A receptor agonists for use against ischemic brain injury, stroke, traumatic brain injury, spinal cord injury and neurodegenerative disorders” (priority 2016, dated 2022).

Legend:
[1] = test system: mice subjected to neonatal HI injury; assay: Open field after neonatal HI injury; type: in vivo, mouse; conditions: P50, 3 days treatment
Procedure: In the short-term study (3 days of intranasal treatment), 3 groups of WT mice were used; animals subjected to neonatal HI injury and treated with either C3a (HI-C3a, n=18) or PBS (HI-PBS, n=18) and sham-operated animals treated with PBS (SHAM-PBS, n=19). These mice were tested in an open field and object recognition test (ORT) at P50-P54 and brains were collected at P55 (FIG. 8A).
Purified human C3a (Complement Technology Inc., Tyler, Tex., USA) was diluted in sterile phosphate buffered saline (PBS) to a concentration of 200 nM, and a total of 8 μl i.e. […] (4 μl/nostril; corresponding to ca. 2.56 μg/kg body weight) of peptide solution or PBS was given intranasally to awake and hand-restrained mice held in a supine position. Solutions were administered through a pipette tip, drop-wise in 2 μl-portions divided by 1 min intervals to allow for absorption. […] C3a or PBS was given every 24 hours for three (short-term study) or seven (long-term study) days starting 1 h after HI induction, i.e. between P9 and P11 or P9 and P15, respectively. Mice in each litter were randomly assigned to C3a or PBS treatment. Sham animals received PBS. […]
The activity of each animal on the first day of habituation to the object recognition test apparatus was recorded as an open field task to study locomotor and exploratory activities (Leke et al., 2012). […]

[2] = test system: VGLUT1+ puncta; assay: VGLUT1 immunostaining of cortex 21 days after stroke; type: in vivo, mouse; conditions: ipsilesional cortex, in particular deep cortical layers
Procedure: For immunofluorescent evaluation, sections were deparaffinized, heated three times for 5 min in a microwave oven in 0.01 M citric buffer (pH 6.0), and blocked in PBS containing 0.05% Tween-20 (Sigma) and 1% in Bovine serum albumin (BSA, Sigma) for GAP-43 and synapsin I staining, 3% normal goat serum for VGLUT1 staining or 4% normal donkey serum for GAP-43 double stainings. Goat anti-synapsin la/b antibody (1:150; Santa Cruz, sc-7379) was followed by biotin-conjugated donkey anti-goat immunoglobulin (Ig) secondary antibody (1:200; Jackson Research Lab, 705-065-147) and Cy3-conjugated streptavidin (1:100; Sigma). Guinea pig anti-VGLUT1 (1:500; Millipore, AB5905) was followed by Alexa Fluor 488 goat anti-guinea pig Ig (1:500; Molecular Probes, A11073). […]
Highest signal intensity single plane images of immunostained sections were obtained by laser scanning confocal microscope (LSM TCS SP2, Leica Microsystems, ×63/NA 1.3 objective for synapsin I and GAP-43; and LSM 700, Carl Zeiss for VGLUT1 ×40/NA 1.3) at 1024×1024 pixels resolution. […] Three standard sections per animal in 160 μm intervals were analysed. […]
Single-stained images were analysed using MetaMorph® software (Molecular Devices, ver. 2.8.5) to obtain number, average size and intensity of positive punctuate structures per image. […] An experimenter blinded to experimental group performed all image acquisitions and quantifications.

C3a: Purified human C3a peptide (Complement Technologies), C3a receptor agonist, amino acid sequence SEQ ID NO: 1
anxiety-like behavior (centre distance and time, rearing, grooming) [1]: anxiety-like behavior was not induced
general exploratory and locomotor activities (speed, activity, locomotion time, distance) [1]: did not affect general exploratory and locomotor activities
density and size of VGLUT1+ puncta [2]: higher density and size
